The test system of data set [1] is non-tumor-bearing BALB/c mice. Briefly: Toxicity, single intravenous injection, 5 months. Format: in vivo.
Details of data set [2]: species or system BALB/c mice. To be noted: mouse, in vivo.

Consider `C[C@@H](O)[C@H](NC(=O)[C@@H]1CSSC[C@H](NC(=O)[C@@H](Cc2ccccc2)NC(=O)CN2CCN(CC(=O)O)CCN(CC(=O)O)CCN(CC(=O)O)CC2)C(=O)N[C@@H](Cc2ccc(O)cc2)C(=O)N[C@H](Cc2c[nH]c3ccccc23)C(=O)N[C@@H](CCCCN)C(=O)N[C@@H]([C@@H](C)O)C(=O)N1)C(=O)O` [[^225Ac]Ac-DOTA-TATE, metal not drawn], for which, in data set [1] (mouse, in vivo), the “ALKP among the cohorts” value was “No significant differences”, the “ALT among the cohorts” value was “No significant differences”, the “AST among the cohorts” value is recorded as “No significant differences” and the “Blood BUN” value was “in the normal range”. In addition, in data set [1] (mouse, in vivo), the Blood creatinine result was “in the normal range”, the “acute kidney damage by pathology” value is listed as “no acute kidney damage” and the “damage in the liver or other tissues by pathology” value is listed as “no treatment related damage”. Also, in data set [1] (to 5 months p.i.), the survival entry is recorded as “all animals survived”. In addition, in data set [2], the “clearance of activity from the tissues” value is “largely cleared”.

(Values after publication PMC12866175 (European journal of nuclear medicine and molecular imaging, 2021).)
